Like-named read-outs stand apart in the source and are kept apart here. Square brackets hold non-standard residues; d marks the D form. Peptide text beside a SMILES is read from it. * marks the point of attachment. HYNIC = NNc1ccc(C(=O)*)cn1; AEEA = NCCOCCOCC(=O)O
Experiment: In vivo biodistribution study (ex vivo organ counting)
Parameters: species or system mice
Conditions: female, mouse, iv, total radioactivity, mean ± SD, n = 3; for tissue uptake at 4 h / tissue to tissue ratio at 4 h: 4h after i.v.
Experimental: All animal experiments were approved by Jilin University Health Science Center Animal Care and Use Committee. Human breast carcinoma cell line MDA-MB-231 with high MT1-MMP expression and human lung adenocarcinomaepithelial cell line A549 with low MT1-MMP expression were cultured in DMEM medium containing 10% (v/v) fetal bovine serum (Invitrogen) supplemented with penicillin (100 μg/mL) and streptomycin (100 μg/mL) at 37°C with 5% CO2. MDA-MB-231 and A549 tumor models were established by subcutaneous injection of 5×10^6 cells into the upper right front flank of female athymic nude mice (Department of Experimental Animal, Peking University Health Science Center). Tumor growth was monitored by caliper measurements three times a week after the tumors are palpable. The mice were used for SPET/CT imaging when the tumor volume reached about 200 mm3 (about 14 days after tumor inoculations). The tumor volume was determined as the formula: V = a × (b^2)/2, where a and b are the length and width of each tumor in mm respectively. During the injection and image acquisition process, the mice were anesthetized with 2.5% isoflurane in oxygen delivered at a flow rate of 1.5 L/min.
Animals were divided into 4 groups (n = 3) for 4 time points with approximately equal distribution of tumor sizes on the day before the study. At 0.5, 1, 2, and 4 h after intravenous administration of [^99mTc]-(HYNIC-AF7P)(tricine)(TPPTS), MDA-MB-231 tumor bearing mice were euthanized. […] The organ uptake was calculated as a percentage of the injected dose per gram of wet tissue (%ID/g).

CC(C)C[C@H](NC(=O)[C@H](Cc1ccccc1)NC(=O)[C@@H](NC(=O)[C@H](CCCCN)NC(=O)[C@@H](NC(=O)[C@H](CC(N)=O)NC(=O)[C@H](Cc1c[nH]cn1)NC(=O)[C@H](CC(C)C)NC(=O)[C@H](Cc1c[nH]cn1)NC(=O)[C@H](CCCCN)NC(=O)[C@H](Cc1c[nH]c2ccccc12)NC(=O)[C@H](Cc1c[nH]cn1)NC(=O)c1ccc(NN)nc1)[C@@H](C)O)[C@@H](C)O)C(=O)NCCOCCOCC(=O)O [[^99mTc]-(HYNIC-AF7P)(tricine)(TPPTS), metal not drawn] ({HYNIC}-HWKHLHNTKTFL[AEEA]-OH)
tissue uptake at 0.5 h (BALB/c nude, blood, 0.5h after i.v., read-out: Blood uptake): 0.36 ± 0.02 %ID/g
tissue uptake at 1 h (BALB/c nude, blood, 1h after i.v., read-out: Blood uptake): 0.28 ± 0.01 %ID/g
tissue uptake at 2 h (BALB/c nude, blood, 2h after i.v., read-out: Blood uptake): 0.2 ± 0.01 %ID/g
tissue uptake at 4 h (BALB/c nude, blood, read-out: Blood uptake): 0.19 ± 0.01 %ID/g
tissue uptake at 0.5 h (BALB/c nude, bone, 0.5h after i.v., read-out: Bone uptake): 0.8 ± 0.04 %ID/g
tissue uptake at 1 h (BALB/c nude, bone, 1h after i.v., read-out: Bone uptake): 0.58 ± 0.03 %ID/g
tissue uptake at 2 h (BALB/c nude, bone, 2h after i.v., read-out: Bone uptake): 0.44 ± 0.02 %ID/g
tissue uptake at 4 h (BALB/c nude, bone, read-out: Bone uptake): 0.4 ± 0.02 %ID/g
tissue uptake at 0.5 h (BALB/c nude, heart, 0.5h after i.v., read-out: Heart uptake): 2.28 ± 0.16 %ID/g
tissue uptake at 1 h (BALB/c nude, heart, 1h after i.v., read-out: Heart uptake): 1.67 ± 0.2 %ID/g
tissue uptake at 2 h (BALB/c nude, heart, 2h after i.v., read-out: Heart uptake): 0.98 ± 0.07 %ID/g
tissue uptake at 4 h (BALB/c nude, heart, read-out: Heart uptake): 0.64 ± 0.04 %ID/g
tissue uptake at 0.5 h (BALB/c nude, kidney, 0.5h after i.v., read-out: Kidney uptake): 8.86 ± 0.48 %ID/g
tissue uptake at 1 h (BALB/c nude, kidney, 1h after i.v., read-out: Kidney uptake): 7.42 ± 0.43 %ID/g
tissue uptake at 2 h (BALB/c nude, kidney, 2h after i.v., read-out: Kidney uptake): 4.84 ± 0.19 %ID/g
tissue uptake at 4 h (BALB/c nude, kidney, read-out: Kidney uptake): 4.33 ± 0.2 %ID/g
tissue uptake at 0.5 h (BALB/c nude, liver, 0.5h after i.v., read-out: Liver uptake): 5.22 ± 0.17 %ID/g
tissue uptake at 1 h (BALB/c nude, liver, 1h after i.v., read-out: Liver uptake): 3.9 ± 0.32 %ID/g
tissue uptake at 2 h (BALB/c nude, liver, 2h after i.v., read-out: Liver uptake): 2.89 ± 0.11 %ID/g
tissue uptake at 0.5 h (BALB/c nude, lung, 0.5h after i.v., read-out: Lung uptake): 2.11 ± 0.06 %ID/g
tissue uptake at 1 h (BALB/c nude, lung, 1h after i.v., read-out: Lung uptake): 1.45 ± 0.18 %ID/g
tissue uptake at 2 h (BALB/c nude, lung, 2h after i.v., read-out: Lung uptake): 1.01 ± 0.03 %ID/g
tissue uptake at 4 h (BALB/c nude, lung, read-out: Lung uptake): 0.7 ± 0.09 %ID/g
tissue uptake at 0.5 h (BALB/c nude, muscle, 0.5h after i.v., read-out: Muscle uptake): 0.9 ± 0.06 %ID/g
tissue uptake at 1 h (BALB/c nude, muscle, 1h after i.v., read-out: Muscle uptake): 0.68 ± 0.09 %ID/g
tissue uptake at 2 h (BALB/c nude, muscle, 2h after i.v., read-out: Muscle uptake): 0.53 ± 0.04 %ID/g
tissue uptake at 4 h (BALB/c nude, muscle, read-out: Muscle uptake): 0.52 ± 0.04 %ID/g
tissue uptake at 0.5 h (BALB/c nude, spleen, 0.5h after i.v., read-out: Spleen uptake): 0.9 ± 0.07 %ID/g
tissue uptake at 1 h (BALB/c nude, spleen, 1h after i.v., read-out: Spleen uptake): 0.71 ± 0.06 %ID/g
tissue uptake at 2 h (BALB/c nude, spleen, 2h after i.v., read-out: Spleen uptake): 0.56 ± 0.06 %ID/g
tissue uptake at 4 h (BALB/c nude, spleen, read-out: Spleen uptake): 0.41 ± 0.02 %ID/g
tissue uptake at 0.5 h (athymic nude, intestine, 0.5h after i.v., read-out: Intestine uptake): 1.91 ± 0.05 %ID/g
tissue uptake at 1 h (athymic nude, intestine, 1h after i.v., read-out: Intestine uptake): 1.61 ± 0.07 %ID/g
tissue uptake at 2 h (athymic nude, intestine, 2h after i.v., read-out: Intestine uptake): 1.52 ± 0.12 %ID/g
tissue uptake at 4 h (athymic nude, intestine, read-out: Intestine uptake): 1.14 ± 0.08 %ID/g
tissue uptake at 4 h (athymic nude, liver, read-out: Liver uptake): 2.55 ± 0.1 %ID/g
tissue uptake at 0.5 h (athymic nude, pancreas, 0.5h after i.v., read-out: Pancreas uptake): 0.77 ± 0.02 %ID/g
tissue uptake at 1 h (athymic nude, pancreas, 1h after i.v., read-out: Pancreas uptake): 0.52 ± 0.03 %ID/g
tissue uptake at 2 h (athymic nude, pancreas, 2h after i.v., read-out: Pancreas uptake): 0.35 ± 0.04 %ID/g
tissue uptake at 4 h (athymic nude, pancreas, read-out: Pancreas uptake): 0.19 ± 0.02 %ID/g
tissue to tissue ratio at 0.5 h (athymic nude, tumor and intestine, 0.5h after i.v., read-out: Tumor/Intestine ratio): 1.76 ± 0.1
tissue to tissue ratio at 1 h (athymic nude, tumor and intestine, 1h after i.v., read-out: Tumor/Intestine ratio): 1.61 ± 0.17
tissue to tissue ratio at 2 h (athymic nude, tumor and intestine, 2h after i.v., read-out: Tumor/Intestine ratio): 1.44 ± 0.13
tissue to tissue ratio at 4 h (athymic nude, tumor and intestine, read-out: Tumor/Intestine ratio): 0.93 ± 0.12
tissue to tissue ratio at 4 h (athymic nude, tumor and liver, read-out: Tumor/Liver ratio): 0.41 ± 0.04
